For orientation: Kd means the free concentration of one partner at which half of the binding sites on the other are occupied at equilibrium, for simple one-to-one binding. The low end stands for tighter binding, the high end for weaker binding.

This passage reports Kd results from article PMC4129656.

This assay addresses biotinylated E2F-1 peptide symmetrically methylated at R111 and R113. The experiment in a line: BLI. Background: In BLI a coated tip is dipped into the sample, and binding shifts an interference pattern.

Consider “p100-TSN Tudor domain (biolayer interferometry) (from UniProt Q7KZF4 729-787) (domain or fragment)”, for which the equilibrium dissociation constant (Kd) amounted to 12 µM.
